The record followed here is patent publication US20240368566A1, “PYK2-DERIVED PEPTIDES FOR INHIBITING INVADOPODIA-MEDIATED CANCER METASTASIS” (BAR-ILAN UNIVERSITY, priority 2023, published 2024).

Entries after “also recorded” stand apart in the source; their conditions may differ. Where no end group is shown, it is not given here.

Assay [1] deals with MDA-MB-231 cells. The assay can be described thus: Invadopodium precursor formation assay. Type of assay: cell-based, human. Particulars: at higher peptide concentrations. The protocol:
The invadopodium precursor formation assay was performed as described in Genna et al., 2018 (supra). Briefly, gelatin was conjugated to Alexa 405 dye (Thermo Fisher Scientific). MatTek dishes were treated with 1 N HCl and coated with 50 μg/ml poly-L-lysine. A 0.2% gelatin solution was prepared in PBS, and a 1:20 mixture of Alexa 405-labeled gelatin/unlabeled gelatin was warmed to 37° C. before addition to the poly-L-lysine coated plates. Gelatin was cross-linked with 0.01% glutaraldehyde followed by quenching with 5 mg/ml sodium borohydride. 125,000 MDA-MB-231 cells were plated on Alexa 405-labeled gelatin plates in the presence of 0.1, 1, or 5 μM of Pyk2-PRR peptides or scrambled control for 4 h. At the end of incubation, cells were fixed in 3.7% paraformaldehyde, permeabilized with 0.1% Triton X-100, blocked with 1% FBS, 1% BSA in PBS, and labeled with anti-Tks5 and anti-cortactin. Images were acquired using an inverted fluorescent microscope (Leica AF6000; 63×, NA 1.4, oil objective, Leica LAS AF acquisition software) (Wetzlar, Germany) equipped with an ORCA-Flash 4.0 V2 digital CMOS camera (Hamamatsu Photonics, Shizuoka, Japan).

For assay [2], the system named is MDA-MB-231 cells. Put plainly: 2D single-cell random migration assay. Type of assay: cell-based, human. The following applies: highest (higher) peptide concentration; 12 hours; compared to control peptide; data not shown. Here is the method: The 2D single-cell random migration assay was performed as previously described in Genna et al. Pyk2 and FAK differentially regulate invadopodia formation and function in breast cancer cells. J Cell Biol 2018; 217: 375-395. In brief, 6-well microtiter plates were coated with 10 μg/ml fibronectin and blocked with 1% denatured BSA. Peptide pre-treated cells were plated at 20,000 cells/well in DMEM/10% FBS containing peptides and allowed to adhere for 12-16 h. Plates were placed in a 37° C. heated chamber, and images were collected using the IncuCyte® Zoom platform (Essen Bioscience, Ann Arbor, MI, USA; 20×, NA 0.60, air objective). Phase images were collected every one hour for a total of 12 h using the IncuCyte® acquisition software. Trajectory plots, accumulated distance (total cell path length), Euclidean distance (the shortest distance between the starting point and endpoint of migration), and velocity were calculated using the chemotaxis and migration tool (ibidi GMBH, Grafelfing, Germany).

The target of assay [3] is T1, cortactin SH3 domain (Mus musculus, UniProt Q60598).
T1 construct: nucleotides1468-1641); 6xHis (N, cleaved yes); made in house; host or cells: E. coli BL21 (DE3)
Put plainly: NMR affinity determination, binding of peptides to purified cortactin-SH3. The following applies: for loss of affinity: mutant versus Pyk2-PRR2. The protocol:
The DNA sequence encoding the SH3 domain of the mouse cortactin SH3 domain (GenBank ID U03184; nucleotides1468-1641) was sub-cloned into a pET-28a plasmid (Novagen, Merck) in frame with the cleavable N-terminal 6×His tag. Isotopically labeled cortactin-SH3 for heteronuclear NMR experiments was expressed in transformed E. coli BL21 cells (DE3) grown in the presence of kanamycin (50 mg/1) and chloramphenicol (34 mg/1) at 37° C. in M9 minimal medium. For ^15N (^13C) labeling the medium contained 1 g/L of ^15NH4Cl (4 g/L ^13C6-glucose), and 0.25 g/l of appropriately labeled Celtone Base Powder (Cambridge Isotope Laboratories, Andover, MA) was added. For triple-labeled ^2H,^13C,^15N—SH3, expression began in 100 ml of the above medium grown to an OD600 of 0.4-0.5 and gently centrifuged. Pellets were then resuspended in 500 ml filter-sterilized D20-based ^15N-M9 supplemented with ^2H7-^13C6-glucose (2 g/1) and DCN-Isogro (0.25 g/1) to reach a final OD600 of −0.1. In both cases cells were then grown at 37° C. and induced with 0.5 mM isopropyl β-D-1-thiogalactopyranoside (IPTG) upon reaching OD600-0.8, followed by overnight growth at 27° C. To purify the SH3 domain, cells were harvested by centrifugation, subjected to a single freeze-thaw cycle, and resuspended in lysis buffer (50 mM NaPi pH 8.0, 300 mM NaCl, 1 mM dithiothreitol (DTT), 100 ml per liter of culture) supplemented with 1 tablet EDTA-free protease inhibitor cocktail (Merck) and benzamidine (5 mM). Cells were lysed by French press, followed by addition of benzamidine (final concentration 10 mM) and phenylmethylsulfonyl fluoride (PMSF, 1 mM), and the lysate was clarified by centrifugation. The supernatant was loaded on a HisTrap HP column (GE Healthcare, Chicago, IL, USA) equilibrated with lysis buffer and the protein eluted through a gradient (Buffer B: 50 mM NaPi pH 8.0, 100 mM NaCl, 300 mM imidazole, 1 mM DTT). To the fraction eluting at ˜40% B purified tobacco etch virus (TEV) protease (1:30 mol:mol) was added, and the mixture dialyzed overnight at 4° C. against dialysis buffer (50 mM NaPi at pH 8.0, 100 mM NaCl, 1 mM DTT). The dialysate was brought to a final concentration of ˜5 mM imidazole, filtered, and loaded onto a HisTrap column. The collected flowthrough was dialyzed against 20 mM Tris (pH 7.5), 1 mM DTT for 3 h to reach a final concentration of 10 mM NaCl. […]
Purified SH3 was dialyzed against NMR sample buffer (30 mM NaPi, pH ˜6.5) and concentrated to the desired concentration in an Amicon concentration tube (3 kDa MWCO) (Merck). […] For quantitative titrations, purchased peptides were dissolved in 100-300 μl NMR sample buffer, and samples at varying (SH3:PRR2 1:0-1:6, SH3 concentration constant at 0.1 mM) ratios were prepared. Fittings were performed with 5-6 measured points. […]

The test system of assay [4] is MDA-MB-231 cells. Put plainly: 3D scratch wound assay in Matrigel. The format is cell-based, human. The following applies: MMP inhibitor, 25 µM. Here is the method:
The 3D scratch wound assay was performed as described in Meirson et al. Targeting invadopodia-mediated breast cancer metastasis by using ABL kinase inhibitors. Oncotarget 2018; 9: 22158-22183. Briefly, 96 well Image Lock microtiter plates (Essen Bioscience) were coated with 100 μg/ml Matrigel (cat #354234; Corning, New-York, NY, USA). Following overnight incubation at 37° C., MDA-MB-231 cells were plated at a final concentration of 350,000 cells/ml and allowed to adhere for 12-16 h in the presence of Pyk2-PRR or control peptides. Following wounding of the bottom Matrigel-cells layer, a top layer of Matrigel was added to a final concentration of 2 mg/ml and allowed to polymerize for 30 min at 37° C. Pyk2-PRR or control scrambled peptides were then added again in DMEM/10% FBS to a final concentration of 0.1, 1, or 5 μM, with or without the MMP inhibitor GM6001 ([…]). Plates were placed in a 37° C. heated chamber, and images were collected using the IncuCyte® Zoom platform (Essen Bioscience; 20×, NA 0.60, air objective). Phase images were collected every one hour for a total of 12 h using the IncuCyte® acquisition software.

The target of assay [5] is T2, cortactin-SH3 domain (mouse cortactin SH3 domain, GenBank ID U03184; nucleotides 1468-1641) (mouse, UniProt Q60598 490-546, isotopically labeled (15N, 13C and/or 2H) for NMR).
T2 construct: domain: SH3 domain; also called purified cortactin-SH3
T2 sequence (Q60598 490-546 limits assumed): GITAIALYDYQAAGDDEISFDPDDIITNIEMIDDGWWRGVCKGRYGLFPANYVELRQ
Put plainly: NMR chemical shift titration (1H,15N-HSQC), unlabeled peptide into 15N-SH3.

Assay [6] addresses T2, cortactin-SH3 domain (mouse cortactin …). Put plainly: NMR chemical shift titration (1H,15N-HSQC).

Turning to “EFTGPPQKPPRLGAQS [Pyk2-PRR3, EFTGPPQKPPRLGAQS]”, in assay [1], the “invadopodia formation and maturation” value is listed as “minor effect”. In addition, the “2D motility (accumulated and Euclidean distances, velocity)” value in assay [2] is “reduced 2D motility; also recorded: minor effect”. Consider “TAFQEPPPKPSR [Δ720-726 deletion mutant, Pyk2-PRR2 truncated to positions 708-719]”, for which the loss of affinity in assay [3] came out at 27 fold. In the case of `CC(=O)N[C@@H](C(=O)N[C@H](C)C(=O)N[C@H](Cc1ccccc1)C(=O)N[C@H](CCC(N)=O)C(=O)N[C@@H](CCC(=O)O)C(=O)N1CCC[C@H]1C(=O)N1CCC[C@H]1C(=O)N1CCC[C@H]1C(=O)N[C@@H](CCCCN)C(=O)N1CCC[C@H]1C(=O)N[C@@H](CO)C(=O)N[C@@H](CCCNC(=N)N)C(=O)N1CCC[C@H]1C(=O)N[C@@H](CCCCN)C(=O)N[C@@H](Cc1ccc(O)cc1)C(=O)N[C@H](CCCNC(=N)N)C(=O)N1CCC[C@@H]1C(=O)N1CCC[C@@H]1C(=O)N1CCC[C@@H]1C(N)=O)[C@H](C)O` [SEQ ID NO: 9, TAFQEPPPKPSRPKYRPPP], the Kd in assay [3] (capped Pyk2-PRR2 derivatives, NMR titration isotherm, unit inferred) is 15 ± 2 µM. The molecule “TAFQEPPPKPSRPKARPPP [Y722A, Pyk2-PRR2 708-726 with Y722A substitution]” displayed a loss of affinity in assay [3] of 3.5 fold.

As for `CNC(=O)[C@H](Cc1c[nH]c2ccccc12)NC(=O)[C@@H](CC(=O)NO)CC(C)C` [GM6001, reference compound], in assay [4], the ECM invasion entry is “fully inhibited”.

B1: Pyk2-PRR3 peptide (SEQ ID NO: 2) (peptide)
peptide: EFTGPPQKPPRLGAQS
notes: Unlabeled synthetic peptide as used in the NMR titration
With B1, the Kd in assay [5] amounted to 650 µM.

B2: Pyk2-PRR2-Tf-tag, Ac-TAFQEPPPKPSRPKYRPPPHRPYIAH (SEQ ID NO: 8 + N-term cap) (peptide)
peptide: Ac-TAFQEPPPKPSRPKYRPPPHRPYIAH
notes: Pyk2-PRR2 (human Pyk2 708-726) followed by a C-terminal tag printed as HRPYIAH, the reverse of the Tf tag
As to B2, the dissociation constant (Kd) in assay [6] came to 2 µM.

B3: Tf-tag-Pyk2-PRR2, HAIYPRHTAFQEPPPKPSRPKYRPPP-NH2 (SEQ ID NO: 7 + C-term cap) (peptide)
peptide: HAIYPRHTAFQEPPPKPSRPKYRPPP-NH2
As for B3, the Kd in assay [6] was found to be 8 µM.

What is called Kd is the concentration at which binding is half-saturated.
